Reference: US6998106
One block for each substance: values may come before it.

How the values were obtained:
[1] = target: EGFRvIII (form used in the assay not stated) (UniProt P00533); test: surface plasmon resonance
[2] = target: EGFRvIII (mutant epidermal growth factor receptor) expressed by the U87MGΔEGFR cell line (UniProt P00533); test: binding of radiolabeled mAb to U87MGΔEGFR cells (Scatchard analysis per Example 2)
[3] = target: EGFRvIII (mutant epidermal growth factor receptor) expressed by the U87MGΔEGFR cell line (UniProt P00533); test: binding of labeled mAb to EGFRvIII-positive tumor xenograft homogenate, Lindmo method (per Example 2)
[4] = target: EGFRvIII (form used in the assay not stated) (UniProt P00533); test: SIPC-labeled scFv; immunoreactive fraction, antigen source not stated
[5] = target: EGFRvIII (form used in the assay not stated) (UniProt P00533); test: SIPC-labeled scFv; method not stated

Ka [1]: 5.5e+09 M⁻¹
Substance: L8A4 scFv dimer with a 5 amino acid linker between the VL and VH domains

Ka [2]: 9.7e+08 M⁻¹
immunoreactive fraction [3]: 69 to 89%
Substance: ^211 At-labeled L8A4 (anti-EGFRvIII mAb L8A4 labeled with N-succinimidyl 5-[^211 At]astato-3-pyridinecarboxylate, SAPC) (antibody)

immunoreactive fraction [4]: 65 to 80%
Ka [5]: 1.5e+08 M⁻¹
Substance: scFv monomer based on the L8A4 variable region, labeled with SIPC
